Earlier results as cited in publication PMC9780825, “Combining mKate2-Kv1.3 Channel and Atto488-Hongotoxin for the Studies of Peptide Pore Blockers on Living Eukaryotic Cells” (Toxins, 2022).

How the values were obtained:
Kv1.3 (Homo sapiens) [1] = molecular target: Kv1.3 (Homo sapiens) (UniProt P22001); test: Rb+ efflux
Kv1.3 (Homo sapiens) [2] = molecular target: Kv1.3 (Homo sapiens) (UniProt P22001); test: radioligand analysis
Kv1.3 (Mus musculus) = Kv1.3 (Mus musculus) (UniProt P16390); test: whole-cell patch clamp
Kv1.3 (Homo sapiens) [3] = molecular target: Kv1.3 (Homo sapiens) (UniProt P22001); test: two-electrode voltage clamp
[4] = molecular target: Kv1.3 (Rattus norvegicus) (UniProt P15384); test: two-electrode voltage clamp
Kv1.3 (Rattus norvegicus), sequence (P15384 whole entry): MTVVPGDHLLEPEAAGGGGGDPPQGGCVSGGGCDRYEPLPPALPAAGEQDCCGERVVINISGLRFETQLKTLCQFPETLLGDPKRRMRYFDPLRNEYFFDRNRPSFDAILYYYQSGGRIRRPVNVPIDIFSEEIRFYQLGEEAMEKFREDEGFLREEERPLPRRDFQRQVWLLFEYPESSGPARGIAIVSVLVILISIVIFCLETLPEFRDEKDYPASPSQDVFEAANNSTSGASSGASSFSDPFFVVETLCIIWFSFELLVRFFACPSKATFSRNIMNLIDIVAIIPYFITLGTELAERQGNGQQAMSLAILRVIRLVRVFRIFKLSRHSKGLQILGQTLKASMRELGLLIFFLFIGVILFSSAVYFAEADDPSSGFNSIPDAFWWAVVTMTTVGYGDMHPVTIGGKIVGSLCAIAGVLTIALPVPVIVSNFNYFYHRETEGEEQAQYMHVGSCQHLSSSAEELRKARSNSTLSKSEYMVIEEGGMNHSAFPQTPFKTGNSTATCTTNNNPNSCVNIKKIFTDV

Kv1.3 (Homo sapiens), sequence (P22001 whole entry): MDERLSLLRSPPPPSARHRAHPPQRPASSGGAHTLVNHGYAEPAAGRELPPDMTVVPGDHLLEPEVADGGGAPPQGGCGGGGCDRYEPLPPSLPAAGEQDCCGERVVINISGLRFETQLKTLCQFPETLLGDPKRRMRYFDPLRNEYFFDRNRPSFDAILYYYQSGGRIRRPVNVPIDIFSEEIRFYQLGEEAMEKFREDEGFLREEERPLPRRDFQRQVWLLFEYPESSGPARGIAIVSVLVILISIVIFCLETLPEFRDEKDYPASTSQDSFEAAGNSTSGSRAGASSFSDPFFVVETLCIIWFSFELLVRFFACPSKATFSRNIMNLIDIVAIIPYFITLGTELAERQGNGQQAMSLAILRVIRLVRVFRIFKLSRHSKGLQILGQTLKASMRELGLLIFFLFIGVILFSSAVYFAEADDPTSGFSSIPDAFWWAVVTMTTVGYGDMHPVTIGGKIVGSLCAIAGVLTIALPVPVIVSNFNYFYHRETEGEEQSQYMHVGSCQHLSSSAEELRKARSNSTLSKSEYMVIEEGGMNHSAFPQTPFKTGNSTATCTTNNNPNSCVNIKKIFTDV
agitoxin 2, sequence (P46111 whole entry): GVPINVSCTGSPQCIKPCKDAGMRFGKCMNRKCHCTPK
Kv1.3 (Mus musculus), sequence (P16390 whole entry): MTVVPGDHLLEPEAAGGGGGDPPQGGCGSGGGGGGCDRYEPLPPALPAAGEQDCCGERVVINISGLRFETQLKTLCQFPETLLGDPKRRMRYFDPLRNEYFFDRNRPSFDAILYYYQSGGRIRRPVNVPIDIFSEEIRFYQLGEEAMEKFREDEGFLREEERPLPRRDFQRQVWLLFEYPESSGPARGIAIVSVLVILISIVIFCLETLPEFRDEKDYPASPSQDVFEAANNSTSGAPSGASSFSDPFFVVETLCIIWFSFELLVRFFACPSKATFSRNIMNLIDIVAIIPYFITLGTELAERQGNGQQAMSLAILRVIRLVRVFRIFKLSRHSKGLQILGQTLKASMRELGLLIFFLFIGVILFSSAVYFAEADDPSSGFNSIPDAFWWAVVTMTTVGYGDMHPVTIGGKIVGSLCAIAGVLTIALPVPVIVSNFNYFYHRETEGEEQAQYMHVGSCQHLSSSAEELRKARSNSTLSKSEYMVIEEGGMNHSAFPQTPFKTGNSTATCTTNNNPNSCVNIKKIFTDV
hongotoxin 1, sequence (P59847 whole entry): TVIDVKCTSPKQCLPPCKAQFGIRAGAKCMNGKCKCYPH
charybdotoxin, sequence (P13487 23-59): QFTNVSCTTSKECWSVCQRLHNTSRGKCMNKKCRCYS
kaliotoxin 1, sequence (P24662 whole entry): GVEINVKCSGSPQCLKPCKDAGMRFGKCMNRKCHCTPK

Substance	Kd (Kv1.3 (Homo sapiens) [1])	Kd (Kv1.3 (Homo sapiens) [2])	Kd (Kv1.3 (Mus musculus))	Kd (Kv1.3 (Homo sapiens) [3])	Kd [4]
hongotoxin 1 (from UniProt P59847)	0.086 nM	0.00024 nM			
kaliotoxin 1 (from UniProt P24662)			0.65 nM	0.01 nM	
charybdotoxin (from UniProt P13487)			3 nM	0.9 nM	
agitoxin 2 (from UniProt P46111)			0.2 nM	0.05 nM	0.004 nM
